Patent US12514920B1, “Respiratory syncytial virus mRNA vaccine, and preparation method therefor and use thereof” (Hangzhou Tianlong Pharmaceutical Co., Ltd., priority 2024, dated 2026)

Columns and labels:
RSV F antibody (11A9) = assay: Binding of epitope II of RSV F antigen mutants by flow cytometry; details: epitope II, antibody 11A9
Procedure, shortened: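 293T cells were transfected with mRNA-LNP (300 ng mRNA) encoding the RSV F mutants and harvested after 16 h. Cells were stained with fluorescent 3C12 (pre-F-specific epitope Φ) or 11A9 (epitope II, pre-F and post-F) for 2 h at 4 °C in the dark, then washed and read by flow cytometry on 1×10^4 cells per measurement.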

[1] = target: RSV pre-F antibody (7H11); assay: Affinity of RSV F antigen mutants by BLI, epitope Quaternary; type: binding
Description: The antibodies were each diluted to 10 g/mL with a 1×PBST solution.

[2] = target: RSV pre-F antibody (3C12); assay: Affinity of RSV F antigen mutants by BLI, epitope Φ; type: binding
Description: To investigate the affinity of the RSV F antigen mutants for antibodies specifically recognizing epitopes in a pre-fusion conformation, the affinity was determined by a bio-layer interferometry (BLI) method in this example.
• 293T cells (purchased from ATCC cell bank); • RSV pre-F antibody (3C12), epitope Φ (Novoprotein, Cat. No.: DA101); • RSV pre-F antibody (7H11), epitope Quaternary (Novoprotein, Cat. No.: DA109); • Experimental group: mRNA vaccines after screening in Example 6;
Protein sample preparation: the experimental procedure was the same as in Example 3.
The antibodies were each diluted to 10 µg/mL with a 1×PBST solution. […]
The detection was performed using a protein interaction analyzer, and the results were analyzed using Data Analysis 12.0 software to obtain the binding rate, dissociation rate, and affinity constants.
Bio-Layer interferometry (referred to as BLI) is a label-free real-time monitoring optical detection technique, mainly used for comprehensive quantitative analysis of the interaction between biomolecules and protein concentration determination. […]
In the present application, the affinity of target proteins for 2 antibodies was analyzed by a BLI method, wherein the RSV pre-F antibody (3C12) recognizes the epitope […], and the RSV pre-F antibody (7H11) recognizes the epitope Quaternary.

Row | Molecule | RSV F antibody (11A9) Epitope II (%) binding rate (RSV F antibody (11A9)) | Kd [1] | Kd [2]
1 | YK-RSV-048 (protein) QNITEEFYQSTCSAVSKGYLGALRTGWYTSVITIELSNIKENKCNGTDAKVKLIKQELDKYKNAVTDLQLLMQSTPATGSGSFLGFLCGVGSAIASGVAVSKVLHLEGEVNKIKSALLSTNKAVVSLSNGVSVLTFKVLDLKNYIDKQLLPILNKQSCSIPNIETVIEFQQKNNRLLEITREFSVNAGVTTPVSTYMLTNSELLSLINDMPITNDQKKLMSNNVQIVRQQSYSIMSIIKEEVLAYVVQLPLYGVIDTPCWKLHTSPLCTTNTKEGSNICLTRTDRGWYCDNAGSVSFFPQAETCKVQSNRVFCDTMCSRTLPSEVNLCNVDIFNPKYDCKIMTSKTDVSSSVITSLGAIVSCYGKTKCTASNKNRGIIKTFSNGCDYVSNKGVDTVSVGNTLYYVNKQEGQSLYVKGEPIINFYDPLVFPSDEFDASISQVNEKINQSLAFIRKSDELLHNVNAGKSTTNIMITTIIIVIIVILLSLIAVGLLLY | 95.1% | 0.227 nM | 0.183 nM
2 | YK-RSV-050 (protein) QNITEEFYQSTCSAVSKGYLGALRTGWYTSVITIELSNIKENKCNGTDAKVKLIKQELDKYKNAVTDLQLLMQSTPATGSGSFLGFCLGVGSAIASGVAVSKVLHLEGEVNKIKSALLSTNKAVVSLSNGVSVLTFKVLDLKNYIDKQLLPILNKQSCSIPNIETVIEFQQKNNRLLEITREFSVNAGVTTPVSTYMLTNSELLSLINDMPITNDQKKLMSNNVQIVRQQSYSIMSIIKEEVLAYVVQLPLYGVIDTPCWKLHTSPLCTTNTKEGSNICLTRTDRGWYCDNAGSVSFFPQAETCKVQSNRVFCDTMCSRTLPSEVNLCNVDIFNPKYDCKIMTSKTDVSSSVITSLGAIVSCYGKTKCTASNKNRGIIKTFSNGCDYVSNKGVDTVSVGNTLYYVNKQEGQSLYVKGEPIINFYDPLVFPSDEFDASISQVNEKINQSLAFIRKSDELLHNVNAGKSTTNIMITTIIIVIIVILLSLIAVGLLLY | 93.0% | 0.115 nM | 0.552 nM
3 | YK-RSV-009 (protein) QNITEEFYCSTCSAVSKGYLGALRTGWYTSVILIELSNIKENKCNGTDAKVKLIKQELDKYKNAVTDLQLLMQSTPATGSGSAIASGVAVSKVLHLEGEVNKIKSALLSTNKAVVSLSNGVSVLTFKVLDLKNYIDKQLLPIVNKQSCSIPNIETVIEFQQKNNRLLEITREFSVNAGVTTPVSTYMLTNSELLSLINDMPITNDQKKLMSNNVQIVRQQSYSIMSIIKEEVLAYVVQLPLYGVIDTPCWKLHTSPLCTTNTKEGSNICLTRTDRGWYCDNAGSVSFFPQAETCKVQSNRVFCDTMNSRTLPSEVNLCNVDIFNPKYDCKIMTSKTDVSSSVITSLGAIVSCYGKTKCTASNKNRGIIKTFSNGCDYVSNKGVDTVSVGNTLYYVNKQEGQSLYVKCEPIINFYDPLVFPSSEFDASISQVNEKINQSLAFIRKSDELLHNVNAGKSTTNIMITTIIIVIIVILLSLIAVGLLLY | 93.1% |  | 
